Residue numbers refer to the chain shown, from its start.
T1: recombinant human complement C2 (NP_000054.2), C-terminal 6His-tag, made in house (CHO cell expression) (human, UniProt P06681 21-752)
T1 construct: a linker before the tag is not described; also called human C2; Human C2
T1 sequence: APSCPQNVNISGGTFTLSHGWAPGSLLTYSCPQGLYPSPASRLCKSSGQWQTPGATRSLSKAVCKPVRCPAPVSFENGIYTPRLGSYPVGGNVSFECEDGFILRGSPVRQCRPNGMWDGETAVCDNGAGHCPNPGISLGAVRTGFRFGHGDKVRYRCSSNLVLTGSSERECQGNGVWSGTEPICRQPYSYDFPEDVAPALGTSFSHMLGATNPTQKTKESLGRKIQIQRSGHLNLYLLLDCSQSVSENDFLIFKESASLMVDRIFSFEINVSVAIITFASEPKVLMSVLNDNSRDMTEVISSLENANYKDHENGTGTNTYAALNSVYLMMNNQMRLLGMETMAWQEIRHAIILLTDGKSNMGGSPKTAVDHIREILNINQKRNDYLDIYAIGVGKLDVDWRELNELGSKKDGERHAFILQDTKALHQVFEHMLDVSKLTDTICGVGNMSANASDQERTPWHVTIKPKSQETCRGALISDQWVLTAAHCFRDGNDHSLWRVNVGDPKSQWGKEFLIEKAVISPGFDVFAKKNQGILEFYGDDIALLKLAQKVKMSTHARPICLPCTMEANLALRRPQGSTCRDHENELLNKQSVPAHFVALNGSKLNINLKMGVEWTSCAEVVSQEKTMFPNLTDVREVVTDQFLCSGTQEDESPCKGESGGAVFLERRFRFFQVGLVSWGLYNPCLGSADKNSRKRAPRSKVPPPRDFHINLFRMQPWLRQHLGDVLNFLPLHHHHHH

B1: 3.2 H2-10 × L3-6 (antibody, V domains shown)
VH: EVQLLESGGGLVQPGGSLRLSCAASGFTFRHYAMSWVRQAPGKGLEWVSLISGSGASTHYADSVKGRFTISRDNSENMLYLQMNSLRAEDTAVYYCAKDSLAVAGSEYFQHWGQGTLVTVSS
VL: SYVLTQAPSVSVAPGQTARITCGGNYFGGKSVHWYQQRPGQAPVLVVYDDSDRPSGIPERFSGSKSGNTATLAISRVEAGDEAAYYCQVYDTHSDHWVFGGGTKLTVL
notes: Histidine mutant of 3.2
B2: 3.2 H2-10 × L1-4 (antibody, V domains shown)
VH: B1 VH
VL: B1 VL with Y26H, H93S
notes: Histidine mutant of 3.2
B3: 3.2 H2-10 × L1-5 (antibody, V domains shown)
VH: B1 VH
VL: B1 VL with F27H, H93S
notes: Histidine mutant of 3.2
B4: 3.2 H2-10 × L1-10 (antibody, V domains shown)
VH: B1 VH
VL: B1 VL with V32H, H93S
notes: Histidine mutant of 3.2
B5: 3.2 H2-10 × L1-2 (antibody, V domains shown)
VH: B1 VH
VL: B1 VL with G24H, H93S
notes: Histidine mutant of 3.2
B6: 3.2 H2-10 parental (antibody, V domains shown)
VH: B1 VH
VL: B1 VL with H93S
notes: Histidine mutant of 3.2
B7: 3.2 H2-10 × L2-5 (antibody, V domains shown)
VH: B1 VH
VL: B1 VL with R53H, H93S
notes: Histidine mutant of 3.2
B8: 3.2 H2-10 × L2-1 (antibody, V domains shown)
VH: B1 VH
VL: B1 VL with D49H, H93S
notes: Histidine mutant of 3.2
B9: 3.2 H2-10 × L3-11 (antibody, V domains shown)
VH: B1 VH
VL: B1 VL with H93S, V98H
notes: Histidine mutant of 3.2
B10: 3.2 H2-10 × L2-6 (antibody, V domains shown)
VH: B1 VH
VL: B1 VL with P54H, H93S
notes: Histidine mutant of 3.2
B11: 3.2 H2-10 × L2-7 (antibody, V domains shown)
VH: B1 VH
VL: B1 VL with S55H, H93S
notes: Histidine mutant of 3.2
B12: 3.2 H2-10 × L2-3 (antibody, V domains shown)
VH: B1 VH
VL: B1 VL with S51H, H93S
notes: Histidine mutant of 3.2
B13: 3.2 H2-10 × L3-7 (antibody, V domains shown)
VH: B1 VH
VL: B1 VL with H93S, S94H
notes: Histidine mutant of 3.2
B14: 3.2 H2-10 × L3-5 (antibody, V domains shown)
VH: B1 VH
VL: B1 VL with T92H, H93S
notes: Histidine mutant of 3.2
B15: 3.2 H2-10 × L1-8 (antibody, V domains shown)
VH: B1 VH
VL: B1 VL with K30H, H93S
notes: Histidine mutant of 3.2
B16: 3.2 H2-10 × L3-4 (antibody, V domains shown)
VH: B1 VH
VL: B1 VL with D91H, H93S
notes: Histidine mutant of 3.2
B17: 3.2 H2-10 × L1-7 (antibody, V domains shown)
VH: B1 VH
VL: B1 VL with G29H, H93S
notes: Histidine mutant of 3.2

Target: T1, recombinant human complement C2 …
Experiment: binding kinetics, neutral pH (BLI presumed)

Kd [nM]	koff [s⁻¹]	kon [M⁻¹ s⁻¹]	Binder
0.42	0.000119	283000	B1
0.28	8.18e-05	293000	B2
0.41	0.000112	272000	B3
0.329	8.72e-05	265000	B4
0.33	9.39e-05	284000	B5

Target: T1, recombinant human complement C2 …
Experiment: BLI (Gator); ratio of dissociation at pH 5.8 to pH 7.4
Method: (§1) The histidine mutant constructs in Table 4 were tested for their pH-dependent dissociation from human C2. Probe-immobilized anti-C2 antibodies were incubated with C2 at pH 7.4 for 600s, followed by a 600s dissociation period in K Buffer at pH 7.4 or pH 5.8. The data were processed and analyzed by the Gator evaluation software.

Fold dissociation pH 5.8/pH 7.4 [fold]	Binder
6.6	B6
9	B1
9.7	B7
5.8	B8
8.7	B9
8.8	B10
9.8	B11
9.5	B2
8.1	B12
8.6	B13
7.2	B14
10.4	B3
10.4	B15
10.4	B4
6.2	B16
11.1	B5
12.8	B17

Target: T1, recombinant human complement C2 …
Experiment: BLI (Gator), antibody on probe; 600 s association at pH 7.4, 600 s dissociation at pH 5.8
Method: as §1

Dissociation (%) pH 5.8 [%]	Binder
51.3	B6
68.7	B1
51.6	B7
81.3	B8
62.6	B9
52.6	B10
52.7	B11
55.8	B2
46.2	B12
60	B13
90.7	B14
66.7	B3
51.8	B15
56.6	B4
82.8	B16
56.5	B5
52	B17

Target: T1, recombinant human complement C2 …
Experiment: BLI (Gator), antibody on probe; 600 s association at pH 7.4, 600 s dissociation at pH 7.4
Method: as §1

Dissociation (%) pH 7.4 [%]	Binder
7.74	B6
7.61	B1
5.33	B7
13.9	B8
7.16	B9
5.97	B10
5.39	B11
5.9	B2
5.69	B12
7	B13
12.6	B14
6.42	B3
5	B15
5.45	B4
13.3	B16
5.1	B5
4.05	B17
